Assays:
His6-eIF4G-MC (human) = His6-eIF4G-MC (human) (UniProt Q04637); test: SPR
[1] = molecular target: eIF4G-MC (83.5 kDa fragment of human eIF4GI, residues 712-1451) (human) (UniProt Q04637); test: SEC
[2] = molecular target: eIF4G-MC (83.5 kDa fragment of human eIF4GI, residues 712-1451) (human) (UniProt Q04637); test: SAXS
eIF4G-MC (F978A) (human) = eIF4G-MC (F978A) (human) (UniProt Q04637); test: ITC
[3] = molecular target: eIF4G-MC (83.5 kDa fragment of human eIF4GI, residues 712-1451) (human) (UniProt Q04637); test: ITC
eIF4A (human) = eIF4A (human) (UniProt P60842); test: ITC
eIF4A;eIF4B = eIF4A;eIF4B (human;human, UniProt P60842;P23588 1-406;1-611, |); test: pull-down
eIF4A;eIF4BΔC = eIF4A;eIF4BΔC (human;human, UniProt P60842;P23588 1-406;1-431, |); test: pull-down
eIF4B = eIF4B (human, UniProt P23588 1-611); test: pull-down
Chain of eIF4B (P23588 whole entry): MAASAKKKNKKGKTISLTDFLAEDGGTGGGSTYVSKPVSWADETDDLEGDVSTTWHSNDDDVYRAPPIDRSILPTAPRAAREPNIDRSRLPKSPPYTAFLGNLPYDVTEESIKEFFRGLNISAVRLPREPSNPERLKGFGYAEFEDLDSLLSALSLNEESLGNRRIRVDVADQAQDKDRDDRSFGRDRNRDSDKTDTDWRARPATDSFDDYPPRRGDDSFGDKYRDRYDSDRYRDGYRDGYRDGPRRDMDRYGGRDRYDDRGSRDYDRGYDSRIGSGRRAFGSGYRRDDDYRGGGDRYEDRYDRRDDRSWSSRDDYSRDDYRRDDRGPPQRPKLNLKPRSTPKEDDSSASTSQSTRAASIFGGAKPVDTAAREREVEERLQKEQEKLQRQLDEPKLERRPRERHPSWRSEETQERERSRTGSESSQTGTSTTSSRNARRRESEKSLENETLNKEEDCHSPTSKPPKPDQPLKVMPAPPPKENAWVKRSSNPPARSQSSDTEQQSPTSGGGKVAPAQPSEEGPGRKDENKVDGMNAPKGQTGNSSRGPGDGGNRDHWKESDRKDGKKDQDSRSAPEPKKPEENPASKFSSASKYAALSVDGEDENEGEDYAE

Chain of eIF4G-MC (83.5 kDa fragment of human eIF4GI, residues 712-1451) (human) (Q04637 711-1450): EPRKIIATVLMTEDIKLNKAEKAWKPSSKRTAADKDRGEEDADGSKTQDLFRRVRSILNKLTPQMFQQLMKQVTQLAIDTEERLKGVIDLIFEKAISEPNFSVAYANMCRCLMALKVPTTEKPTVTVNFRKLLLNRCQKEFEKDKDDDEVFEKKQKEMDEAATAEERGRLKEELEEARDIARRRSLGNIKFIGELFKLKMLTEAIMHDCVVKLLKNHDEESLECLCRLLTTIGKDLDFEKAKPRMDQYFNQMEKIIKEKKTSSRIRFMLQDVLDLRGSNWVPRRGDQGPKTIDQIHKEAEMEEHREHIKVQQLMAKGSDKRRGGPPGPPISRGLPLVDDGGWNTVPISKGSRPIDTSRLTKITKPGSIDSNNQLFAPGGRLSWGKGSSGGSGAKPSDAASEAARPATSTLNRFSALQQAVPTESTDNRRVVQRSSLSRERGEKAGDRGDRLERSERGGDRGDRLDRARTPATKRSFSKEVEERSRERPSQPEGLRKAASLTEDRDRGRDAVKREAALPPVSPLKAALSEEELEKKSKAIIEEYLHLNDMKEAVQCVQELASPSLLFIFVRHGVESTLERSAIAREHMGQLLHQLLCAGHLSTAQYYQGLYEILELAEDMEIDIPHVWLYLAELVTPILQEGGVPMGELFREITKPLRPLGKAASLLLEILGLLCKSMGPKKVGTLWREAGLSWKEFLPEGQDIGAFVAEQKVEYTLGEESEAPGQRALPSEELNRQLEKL
Chain of eIF4G-MC (F978A) (human) (Q04637 711-1450 F977A): as the sequence (Q04637 711-1450) above, with F267A counted along it
Chain of eIF4G-MC (83.5 kDa fragment of human eIF4GI, residues 712-1451) (Q04637 711-1450): as the sequence (Q04637 711-1450) above
Chain of His6-eIF4G-MC (human) (Q04637 711-1450): as above

Molecule: eIF4A (from UniProt P60842 1-406) (enzyme)
- KD high-affinity site (His6-eIF4G-MC (human)): 67 nM
- stoichiometry N (eIF4A per eIF4G-MC) [1]: 1
- stoichiometry N (eIF4A per eIF4G-MC) [2]: 1
- Kd (eIF4G-MC (F978A) (human)): 417 nM
- stoichiometry N (eIF4A per eIF4G-MC (F978A)) (eIF4G-MC (F978A) (human)): 1
- KD high-affinity site [3]: 50 nM
- KD low-affinity site [3]: 775 nM

Molecule: eIF4G-MC (83.5 kDa fragment of human eIF4GI, residues 712-1451) (from UniProt Q04637-8 712-1451) (domain or fragment)
- KD high-affinity site (eIF4A (human)): 42 nM
- KD low-affinity site (eIF4A (human)): 1.6 µM

Molecule: UUUUUUUUUUUUUUUUUUUUUUUUUUUUUU (ssRNA) [pU30-biotin]
- binding result (eIF4A;eIF4B): binds
- binding result (eIF4A;eIF4BΔC): binds
- binding result (eIF4B): binds

From publication PMC3074137
